Reference: PMC5575927

Legend:
Fluorogenic AMC release [1] = substrate: CC(=O)N[C@H](C(=O)N[C@@H](CC(C)C)C(=O)N[C@H](C(=O)N[C@@H](CCCCN)C(=O)Nc1ccc2c(C)cc(=O)oc2c1)[C@@H](C)O)C(C)C; experiment: Fluorogenic AMC release; format: biochemical; details: pH 7.4; 25.0 °C
Fluorogenic AMC release [2] = substrate: CC(=O)N[C@H](C(=O)N[C@@H](CC(C)C)C(=O)NCC(=O)N[C@@H](CCCCN)C(=O)Nc1ccc2c(C)cc(=O)oc2c1)C(C)C; experiment: Fluorogenic AMC release; format: biochemical; details: pH 7.4; 25.0 °C

B1: PmC11 (Parabacteroides merdae) (protein)
chain: ETPEPRTTRTILVYMMANNSLNSFASKNIESMIEGATSKNLNGGNLIVYYAPAGSPPELLRIKEENGVVKKIHLKDYEKQNSADPDVMRSVIGEVVSQYPADSYGLVLWSHGTAWLPSDYQNKLKAFGQDGNNWMEIDDLAKGLPDDLFDFILFDACYMASVECTYELRNKAEYILASPTETMADGWPYEEMMPQLFATDLQLEKVGETFYNHYLNNTYPYATVSLTKTSELDNLKSVTHDILADKTESDIYSLDPKKMQRLEYLYRSPGMLYDFNDYIKQLATAEQYDRFISCLDKAVVYKAHTPKSYYAAIGNALPIKSYCGLTIFVPQESLPKMLEWYKQRVGWYKAVYE
- Km (Fluorogenic AMC release [1]): 20.4 µM
- Km (Fluorogenic AMC release [2]): ~185.8 µM
